{"source": "paper PMC7116854", "about": "(Nature, 2020)", "binders": {"B1": {"name": "RIFIN PF3D7_1254800 variable region C223S (165-261) (domain or fragment)", "chain": "NYETINAFIAKTIEELEGIPGITKLFGAKISQFVTPAVFRKPMSLVETILSEKKKLCLSAANKNELLCRGMNPNVPETLPKKIEVAVNEVLSSVNDT"}, "B2": {"name": "RIFIN PF3D7_0100400 variable region (165-329) (domain or fragment)", "chain": "VWKTTEIAAAMELAKQAGAAAGLKAGHLAGTNAVIEQLRTLGIYFVGDKLLETIIDVTNYMNVSFIYDKVYSHYTTSCTPSLVNDQLVGTFNTSDPFCNLVHSNLQGSFYRSSAQTIIYEKVEEAVAGAEQAATTKTAVMTPIYTTEFTAKNIAEVEAATTSYYT"}, "B3": {"name": "RIFIN PF3D7_1254800 variable region (residues 165-274) (domain or fragment)", "chain": "NYETINAFIAKTIEELEGIPGITKLFGAKISQFVTPAVFRKPMSLVETILSEKKKLCLCAANKNELLCRGMNPNVPETLPKKIEVAVNEVLSSVNDTWATATTPTTFFTN"}}, "assay_in_all_cases": "SPR", "key": {"[1]": {"target": "T1, LILRB1 D1D4 (complete extracellular domain of LILRB1) (human, UniProt Q8NHL6 24-417)", "T1 sequence (Q8NHL6 24-417)": "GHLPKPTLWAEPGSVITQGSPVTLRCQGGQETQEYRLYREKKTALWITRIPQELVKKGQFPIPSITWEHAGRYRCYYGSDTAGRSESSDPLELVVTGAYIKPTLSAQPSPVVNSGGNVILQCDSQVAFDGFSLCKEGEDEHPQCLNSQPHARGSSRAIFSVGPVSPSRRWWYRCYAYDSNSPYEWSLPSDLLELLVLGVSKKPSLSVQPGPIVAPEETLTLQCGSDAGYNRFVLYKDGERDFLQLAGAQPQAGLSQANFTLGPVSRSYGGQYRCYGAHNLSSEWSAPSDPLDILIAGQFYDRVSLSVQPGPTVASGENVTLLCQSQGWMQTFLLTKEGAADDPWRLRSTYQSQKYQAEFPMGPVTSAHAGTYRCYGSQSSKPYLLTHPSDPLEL"}, "LILRB1 D1D2 [2]": {"target": "T2, LILRB1 D1D2 (human, UniProt Q8NHL6 24-221)", "T2 sequence (Q8NHL6 24-221)": "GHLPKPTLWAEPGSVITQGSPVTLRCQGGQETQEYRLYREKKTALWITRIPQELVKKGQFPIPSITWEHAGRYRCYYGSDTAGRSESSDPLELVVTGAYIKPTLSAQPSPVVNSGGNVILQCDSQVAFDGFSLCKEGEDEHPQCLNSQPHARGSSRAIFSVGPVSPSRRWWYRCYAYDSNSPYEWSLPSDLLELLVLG"}, "[3]": {"target": "T1, LILRB1 D1D4 (complete extracellular …)", "remark": "listed apart in the source"}, "LILRB1 D1D2 [4]": {"target": "T2, LILRB1 D1D2", "remark": "listed apart in the source"}}, "note": "Like-named read-outs stand apart in the source and are kept apart here."}
{"binder": "B1", "values": [{"measurement": "Kd", "setting": "[1]", "value": "700 ± 5", "unit": "nM"}, {"measurement": "Kd", "setting": "LILRB1 D1D2 [2]", "value": "1100 ± 50", "unit": "nM"}, {"measurement": "Kd", "setting": "[3]", "value": 1040, "unit": "nM"}, {"measurement": "koff", "setting": "[3]", "value": 0.299, "unit": "s⁻¹"}, {"measurement": "kon", "setting": "[3]", "value": 288000, "unit": "M⁻¹ s⁻¹"}, {"measurement": "Kd", "setting": "LILRB1 D1D2 [4]", "value": 1330, "unit": "nM"}, {"measurement": "koff", "setting": "LILRB1 D1D2 [4]", "value": 0.579, "unit": "s⁻¹"}, {"measurement": "kon", "setting": "LILRB1 D1D2 [4]", "value": 437000, "unit": "M⁻¹ s⁻¹"}]}
{"binder": "B2", "values": [{"measurement": "Kd", "setting": "[1]", "value": "4400 ± 3200", "unit": "nM"}, {"measurement": "Kd", "setting": "[3]", "value": 14500, "unit": "nM"}, {"measurement": "koff", "setting": "[3]", "value": 0.0592, "unit": "s⁻¹"}, {"measurement": "kon", "setting": "[3]", "value": 4100, "unit": "M⁻¹ s⁻¹"}]}
{"binder": "B3", "values": [{"measurement": "Kd", "setting": "[1]", "value": "570 ± 130", "unit": "nM"}, {"measurement": "Kd", "setting": "[3]", "value": 1130, "unit": "nM"}, {"measurement": "koff", "setting": "[3]", "value": 0.297, "unit": "s⁻¹"}, {"measurement": "kon", "setting": "[3]", "value": 263000, "unit": "M⁻¹ s⁻¹"}]}
